Laboratory results from patent US20230050972A1 (MOMENTA PHARMACEUTICALS, published 2023).
“And” between values parts separate entries of the source, which are not always exact repeats. Equal values may be shown once.

Assays:
[1] = biological target: T1, human α11β1 expressed on the surface of CHO-K1 cells (human, UniProt Q9UKX5 23-1188); assay: FACS titration on Human CHO-α11 cells
Procedure: (§1) 200,000 cells (wild-type CHO-K1 cells or CHO-K1 cells expressing human α11) were incubated with each antibody at desired concentrations in FACS buffer for 30 min at 4° C. Then, the cells were washed with FACS buffer and incubated with secondary antibody at 1:100 dilution for 30 minutes at 4° C. Cells were then washed and fixed with 1% PFA in PBS for 20 minutes at room temperature; washed again and read on a cytometer in FACS buffer.

Mouse CHO-α11 = Mouse CHO-α11 (mouse, UniProt P61622); assay: FACS titration on Mouse CHO-α11 cells
Chain of Mouse CHO-α11 (P61622 23-1188): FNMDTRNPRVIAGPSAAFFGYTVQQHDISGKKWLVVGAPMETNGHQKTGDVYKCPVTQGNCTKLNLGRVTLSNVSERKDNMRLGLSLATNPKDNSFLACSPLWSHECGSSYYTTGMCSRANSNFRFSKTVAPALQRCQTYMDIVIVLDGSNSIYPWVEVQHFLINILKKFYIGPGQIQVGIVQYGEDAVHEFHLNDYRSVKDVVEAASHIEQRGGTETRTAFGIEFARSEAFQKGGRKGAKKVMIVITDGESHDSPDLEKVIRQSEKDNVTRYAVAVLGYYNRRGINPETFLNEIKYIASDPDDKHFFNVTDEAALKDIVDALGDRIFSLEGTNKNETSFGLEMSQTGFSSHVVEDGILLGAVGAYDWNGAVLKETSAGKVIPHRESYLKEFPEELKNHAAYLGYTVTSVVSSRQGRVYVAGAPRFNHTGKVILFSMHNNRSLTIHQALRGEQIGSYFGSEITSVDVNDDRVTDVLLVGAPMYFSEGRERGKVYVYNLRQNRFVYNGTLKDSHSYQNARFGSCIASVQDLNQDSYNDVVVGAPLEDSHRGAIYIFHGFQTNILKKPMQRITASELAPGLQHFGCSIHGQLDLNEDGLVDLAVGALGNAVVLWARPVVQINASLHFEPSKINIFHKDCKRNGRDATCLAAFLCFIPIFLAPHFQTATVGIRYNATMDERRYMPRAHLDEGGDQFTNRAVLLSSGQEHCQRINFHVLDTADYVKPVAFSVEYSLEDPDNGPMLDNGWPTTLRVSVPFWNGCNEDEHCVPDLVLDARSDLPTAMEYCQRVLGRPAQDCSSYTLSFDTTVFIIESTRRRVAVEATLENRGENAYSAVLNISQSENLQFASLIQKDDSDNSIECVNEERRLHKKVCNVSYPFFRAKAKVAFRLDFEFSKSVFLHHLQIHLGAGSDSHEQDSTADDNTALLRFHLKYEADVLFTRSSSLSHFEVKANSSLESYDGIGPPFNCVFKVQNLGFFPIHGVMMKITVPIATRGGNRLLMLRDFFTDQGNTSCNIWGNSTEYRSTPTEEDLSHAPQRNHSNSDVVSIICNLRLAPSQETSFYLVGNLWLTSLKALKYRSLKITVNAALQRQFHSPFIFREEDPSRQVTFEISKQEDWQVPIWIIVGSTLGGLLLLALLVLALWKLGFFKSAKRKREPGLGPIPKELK

[2] = biological target: T2, α11β1 on human myofibroblasts (MF) (human, UniProt Q9UKX5 23-1188; P05556 21-798); assay: FACS titration on human myofibroblasts
T2 construct: whole, on cells
T2 sequence (Q9UKX5 23-1188, chain 1 of 2): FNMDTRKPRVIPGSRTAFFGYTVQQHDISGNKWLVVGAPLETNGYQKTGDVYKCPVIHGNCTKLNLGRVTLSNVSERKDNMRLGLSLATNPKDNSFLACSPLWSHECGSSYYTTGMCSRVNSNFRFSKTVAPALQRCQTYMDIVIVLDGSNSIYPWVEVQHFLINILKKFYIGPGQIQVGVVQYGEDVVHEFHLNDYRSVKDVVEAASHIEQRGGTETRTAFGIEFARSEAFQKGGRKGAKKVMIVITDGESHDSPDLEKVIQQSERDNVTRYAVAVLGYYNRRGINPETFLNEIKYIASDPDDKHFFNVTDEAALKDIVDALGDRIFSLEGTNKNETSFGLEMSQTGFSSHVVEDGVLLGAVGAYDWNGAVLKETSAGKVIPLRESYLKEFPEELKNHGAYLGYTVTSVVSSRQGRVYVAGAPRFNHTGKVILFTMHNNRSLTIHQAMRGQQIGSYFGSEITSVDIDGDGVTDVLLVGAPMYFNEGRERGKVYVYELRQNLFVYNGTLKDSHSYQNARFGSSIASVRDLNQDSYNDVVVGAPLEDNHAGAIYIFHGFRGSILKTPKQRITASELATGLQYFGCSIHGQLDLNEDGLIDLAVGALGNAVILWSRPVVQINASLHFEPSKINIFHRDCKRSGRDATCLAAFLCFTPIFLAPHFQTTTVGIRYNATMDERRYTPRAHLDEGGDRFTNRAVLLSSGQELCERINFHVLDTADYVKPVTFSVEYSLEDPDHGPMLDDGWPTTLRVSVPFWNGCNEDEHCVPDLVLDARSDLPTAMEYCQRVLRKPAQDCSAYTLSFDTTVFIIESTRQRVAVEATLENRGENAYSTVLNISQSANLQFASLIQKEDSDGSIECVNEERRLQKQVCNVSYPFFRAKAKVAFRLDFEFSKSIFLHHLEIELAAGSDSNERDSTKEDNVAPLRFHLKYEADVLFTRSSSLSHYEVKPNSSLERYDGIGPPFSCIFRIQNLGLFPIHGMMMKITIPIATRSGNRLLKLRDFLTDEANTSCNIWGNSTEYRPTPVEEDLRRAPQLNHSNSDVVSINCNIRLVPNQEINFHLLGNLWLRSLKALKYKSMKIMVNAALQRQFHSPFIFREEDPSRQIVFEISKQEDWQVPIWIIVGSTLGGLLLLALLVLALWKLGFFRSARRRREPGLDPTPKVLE
T2 sequence (P05556 21-798, chain 2 of 2): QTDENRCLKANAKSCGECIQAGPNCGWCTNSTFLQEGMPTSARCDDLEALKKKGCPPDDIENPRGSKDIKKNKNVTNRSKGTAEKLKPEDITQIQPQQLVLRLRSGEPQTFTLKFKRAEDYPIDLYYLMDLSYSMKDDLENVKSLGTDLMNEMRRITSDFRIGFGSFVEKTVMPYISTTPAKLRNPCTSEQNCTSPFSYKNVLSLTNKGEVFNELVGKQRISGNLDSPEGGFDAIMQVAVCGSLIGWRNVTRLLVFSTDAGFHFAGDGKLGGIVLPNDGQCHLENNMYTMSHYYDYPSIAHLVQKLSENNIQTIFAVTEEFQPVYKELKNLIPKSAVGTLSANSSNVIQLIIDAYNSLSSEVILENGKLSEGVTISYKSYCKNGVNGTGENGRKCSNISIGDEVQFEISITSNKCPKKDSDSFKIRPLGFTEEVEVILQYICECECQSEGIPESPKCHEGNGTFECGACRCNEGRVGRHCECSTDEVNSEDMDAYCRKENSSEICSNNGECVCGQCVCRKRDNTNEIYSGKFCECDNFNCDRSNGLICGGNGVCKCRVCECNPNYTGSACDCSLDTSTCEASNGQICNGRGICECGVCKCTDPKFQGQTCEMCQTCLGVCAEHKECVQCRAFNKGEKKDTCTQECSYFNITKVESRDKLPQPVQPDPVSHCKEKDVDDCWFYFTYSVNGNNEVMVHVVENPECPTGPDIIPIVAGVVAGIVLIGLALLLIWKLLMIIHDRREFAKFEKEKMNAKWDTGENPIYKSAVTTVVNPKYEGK
Procedure: (§2) Human Pulmonary Fibroblasts (ScienCell) were cultured in complete Fibroblast Growth Medium (ScienCell) until 80% confluent in T-150 flasks. Cells were washed and harvested using Accutase. Cells were seeded into T-150 flasks at 7,500 cells/cm² in complete FGF and cultured for 72 hours. Cells were then washed and starved in serum reduced medium for 24 hours. After starvation, cells were treated with TGFβ-1 (R&D Systems) for 72 hours. Cells were harvested using Accutase and seeded in 96-well conical bottom plates. Cells were blocked with Heat Inactived Fetal Bovine Serum (Gibco) for 30 minutes at 4° C. Cells were then incubated with anti-α11 antibodies at the doses described in each figure for 30 minutes at 4° C. A human anti-α11 antibody (Creative BioLabs) was included as a positive control as well as the appropriate IgG isotype negative controls. Cells were washed twice and incubated with PE conjugated secondary antibodies specific to the IgG class of the anti-α11 antibodies being tested for 30 minutes at 4° C. Cells were washed twice and fixed in 1% PFA for 30 minutes. Cells were acquired on a FACS Verse […]. Data were analyzed by gating on single cells and determining the geometric Mean Fluorescence Intensity (gMFI) in the PE channel for each sample.

[3] = biological target: T3, in-house generated I domain of α11β1 (human, UniProt Q9UKX5 159-349, limits assumed); assay: SPR, single-cycle injections of 33, 100 and 300 nM over the a11b1 I Domain
T3 construct: domain: I domain; also called human α11β1 I domain; α11β1 I Domain
T3 sequence (looked up): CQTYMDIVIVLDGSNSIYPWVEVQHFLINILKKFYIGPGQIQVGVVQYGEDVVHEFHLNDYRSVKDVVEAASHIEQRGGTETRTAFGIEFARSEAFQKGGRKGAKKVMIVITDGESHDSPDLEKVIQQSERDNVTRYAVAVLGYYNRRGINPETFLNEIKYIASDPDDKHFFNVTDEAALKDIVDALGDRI

recombinant human α11β1 [4] = biological target: T4, recombinant human α11β1 (human, UniProt Q9UKX5 23-1141; P05556 21-728); assay: SPR (Biacore T200), HIS-tagged human α11β1 captured on anti-HIS, single-cycle kinetics, 1:1 Langmuir fit
T4 construct: Coated in ELISA; ELISA and SPR material treated as one molecule; also called HIS-tagged human α11β1; integrin alpha 11 beta 1
T4 sequence (Q9UKX5 23-1141 limits assumed, chain 1 of 2): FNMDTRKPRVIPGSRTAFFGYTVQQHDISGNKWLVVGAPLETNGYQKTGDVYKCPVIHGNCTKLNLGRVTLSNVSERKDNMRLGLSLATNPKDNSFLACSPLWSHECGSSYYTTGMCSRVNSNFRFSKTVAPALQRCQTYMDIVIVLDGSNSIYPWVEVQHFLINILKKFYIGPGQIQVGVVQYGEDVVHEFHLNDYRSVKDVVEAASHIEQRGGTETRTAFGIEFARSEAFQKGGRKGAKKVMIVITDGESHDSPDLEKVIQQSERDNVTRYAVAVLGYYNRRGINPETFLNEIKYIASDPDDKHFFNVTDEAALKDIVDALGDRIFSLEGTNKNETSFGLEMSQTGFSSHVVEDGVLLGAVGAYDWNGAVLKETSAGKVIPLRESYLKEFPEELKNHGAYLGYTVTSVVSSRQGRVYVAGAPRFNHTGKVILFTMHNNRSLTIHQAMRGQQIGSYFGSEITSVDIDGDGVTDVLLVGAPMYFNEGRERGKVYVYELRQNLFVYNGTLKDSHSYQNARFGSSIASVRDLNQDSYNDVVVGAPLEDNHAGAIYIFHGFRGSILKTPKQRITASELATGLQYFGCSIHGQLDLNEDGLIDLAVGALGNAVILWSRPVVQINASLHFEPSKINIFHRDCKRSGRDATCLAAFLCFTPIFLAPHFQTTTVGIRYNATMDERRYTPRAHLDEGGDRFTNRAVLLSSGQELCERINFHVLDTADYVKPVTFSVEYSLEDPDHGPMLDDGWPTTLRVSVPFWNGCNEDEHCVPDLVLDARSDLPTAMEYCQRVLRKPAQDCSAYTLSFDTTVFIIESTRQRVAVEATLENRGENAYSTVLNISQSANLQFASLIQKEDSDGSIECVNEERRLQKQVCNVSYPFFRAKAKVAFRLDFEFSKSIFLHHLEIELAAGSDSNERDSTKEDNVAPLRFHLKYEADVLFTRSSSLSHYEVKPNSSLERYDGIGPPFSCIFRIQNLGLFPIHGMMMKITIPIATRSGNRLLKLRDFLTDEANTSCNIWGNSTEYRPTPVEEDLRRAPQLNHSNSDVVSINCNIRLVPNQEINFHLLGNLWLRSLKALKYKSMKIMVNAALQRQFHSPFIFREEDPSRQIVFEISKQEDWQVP
T4 sequence (P05556 21-728 limits assumed, chain 2 of 2): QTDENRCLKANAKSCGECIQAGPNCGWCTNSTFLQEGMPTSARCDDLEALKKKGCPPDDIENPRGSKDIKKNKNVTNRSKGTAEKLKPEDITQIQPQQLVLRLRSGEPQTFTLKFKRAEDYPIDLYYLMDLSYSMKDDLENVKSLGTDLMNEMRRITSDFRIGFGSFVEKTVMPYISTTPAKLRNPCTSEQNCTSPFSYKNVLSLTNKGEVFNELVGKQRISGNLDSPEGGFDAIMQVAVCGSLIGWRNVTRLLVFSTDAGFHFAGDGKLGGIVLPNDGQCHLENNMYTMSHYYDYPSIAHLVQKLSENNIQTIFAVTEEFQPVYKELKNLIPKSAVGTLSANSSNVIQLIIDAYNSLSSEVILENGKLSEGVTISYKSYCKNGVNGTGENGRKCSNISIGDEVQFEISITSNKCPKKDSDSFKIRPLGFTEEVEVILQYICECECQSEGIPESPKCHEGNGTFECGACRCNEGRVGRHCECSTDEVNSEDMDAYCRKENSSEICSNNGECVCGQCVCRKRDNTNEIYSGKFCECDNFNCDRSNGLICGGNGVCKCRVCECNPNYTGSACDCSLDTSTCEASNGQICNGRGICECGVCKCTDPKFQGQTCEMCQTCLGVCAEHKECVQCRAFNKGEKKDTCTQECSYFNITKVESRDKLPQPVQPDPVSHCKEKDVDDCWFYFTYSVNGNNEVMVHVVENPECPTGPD
Procedure: (§3) The affinity of antibodies for human α11β1 was measured by surface plasmon resonance assay (SPR). Affinity was measured at pH 7.6 and 25° C. with a Biacore T200 instrument. Anti-HIS antibody was immobilized on the SPR sensor surface using EDC/NHS covalent attachment. HIS-tagged human α11β1 was captured on the sensor surface and a single-cycle kinetics assay was used. Increasing concentrations of test antibody were injected in series over the sensor-bound α11β1. Dissociation was monitored for 1000 seconds. A sensor surface with only anti-HIS antibody and a series of blank injections were used to double-reference subtract the data. A 1:1 Langmuir model was fit to the data to estimate the kinetic association and dissociation constants. The affinity (equilibrium dissociation constant) of the interaction was calculated by dividing the kinetic dissociation constant by the kinetic association constant. Between injection cycles α11β1 and bound antibody were removed with an injection of 10 mM glycine at pH 1.5.

recombinant human α11β1 [5] = biological target: T4, recombinant human α11β1; assay: SPR, HIS-tagged human α11β1 captured by anti-HIS, antibody as analyte, single-cycle kinetics
Procedure: as §3
The binding affinity of antibodies for the α11β1 Headpiece and α11β1 I Domain as measured by SPR is shown in FIG. 10A and FIG. 10B, respectively.

[6] = biological target: T3, in-house generated I domain of α11β1; assay: ELISA on the human α11β1 I domain
recombinant human α11β1 [7] = biological target: T4, recombinant human α11β1; assay: ELISA, plate coated with recombinant human α11β1
Procedure: (§4) 0.25 μg/mL of target antigen (recombinant human or mouse α11β1) was plated in a 96-well plate over night at 4° C. Plates were washed (PBS with 0.1% Tween-20), blocked (PBS with 2% BSA and 0.05% Tween-20) for 1 hour at room temperature and incubated with a range of antibody concentrations for 1 hour at room temperature. Subsequently, plates were washed and incubated with biotinylated anti-rabbit/mouse/human IgG in a 1:1000 dilution buffer and incubated for 1 hour at room temperature. After washing the plates, Streptavidin HRP was added at 1:200 in dilution buffer and incubated for 1 hour at room temperature. Ultra TMB ELISA substrate solution was added and the plates incubated for 5 minutes on a plate shaker. The reaction was stopped by adding stop solution to each well and plates were read at 450 nm.

[8] = biological target: T1, human α11β1 expressed on the surface of …; assay: FACS on CHO-K1 hu α11β1 cells, estimated EC50
Procedure: as §1
Binding EC₅₀ was estimated using data from Fluorescence-activated cell sorting (FACS) performed with CHO-K1 hu α11β1 cells. Four out of six mAbs tested had EC₅₀ results in the low nanomolar range (8-P20, 8-G15, 8-J17, 8-l14), while the remaining two mAbs were not as potent (9-G05 and 9-E16; both I domain binders).

recombinant mouse α11β1 [9] = biological target: T5, recombinant mouse α11β1 (mouse, UniProt P61622 23-1141; P09055 21-728, limits assumed); assay: ELISA, plate coated with recombinant mouse α11β1
T5 construct: also called murine α11β1
Procedure: as §4

recombinant human α11β1 [10] = biological target: T4, recombinant human α11β1; assay: ELISA on recombinant human α11β1
Procedure: as §4

[11] = biological target: T2, α11β1 on human myofibroblasts (MF); assay: FACS on human myofibroblasts
Procedure: as §2

[12] = biological target: T3, in-house generated I domain of α11β1; assay: ELISA on the human α11β1 I domain; remark: listed apart in the source
[13] = biological target: T1, human α11β1 expressed on the surface of …; assay: cell-based or functional assay
recombinant mouse α11β1 [14] = biological target: T5, recombinant mouse α11β1; assay: ELISA on recombinant mouse α11β1
Procedure: as §4

T1 sequence (Q9UKX5 23-1188): as the sequence (Q9UKX5 23-1188, chain 1 of 2) above

B1: 1994_01_C07 (antibody, V domains shown)
VH: QVQLVQSGAEVKKPGASVKVSCKASGYTFTSYGISWVRQAPGQGLEWMGWISAYNGNTNYAQKLQGRVTMTTDTSTSTAYMELRSLRSDDTAAYYCARVTGITGTTIDPWGQGTMVTVSS
VL: DIQMTQSPSSLSASVGDRVTITCRASQSISSYLNWYQQKPGKAPKLLIYDASSLESGVPSRFSGSGSGTEFTLTISSLQPDDFAVYYCQQYNNWPQTFGQGTKVEIK
notes: fully human, from phage display, scFv converted to IgG; kappa
- EC50 [1]: 7.75 nM
- EC50 (Mouse CHO-α11): 29 nM
- EC50 [2]: 0.53 µg/mL and 3.5 nM
- binding result [3]: no binding (tested: 300 nM)
- koff (recombinant human α11β1 [4]): 0.000289 s⁻¹
- kon (recombinant human α11β1 [4]): 374000 M⁻¹ s⁻¹
- Kd (recombinant human α11β1 [5]): 0.77 nM

B2: 9-G05 (antibody, V domains shown)
VH: EVQLQQSGPELVKPGASVKIPCKASGYTFPDYNMDWVKQSHGKSLEWIGYINPDNGGTIYNQKFKGKATLTVDKSSSTAYMELRSLTSEDTAVYYCARLDSSGYGYYAMDYWGQGTSVTVSS
VL: DIVLTQSPASLAVSLGQRATISCRASESVDNYGISFMHWYQQKPGQPPKLLIYRASNLDSEIPARFSGSGSRTDFTLTIDPVETDDVATYYCQQSYKDPRTFGGGTKLEIK
notes: mouse hybridoma IgG
- EC50 [1]: 187 nM
- EC50 (read off the curve) [6]: ~0.3 ng/mL
- EC50 (read off the curve) (recombinant human α11β1 [7]): ~10 ng/mL
- EC50 [8]: 21 µg/mL and 140 nM
- koff (recombinant human α11β1 [4]): 4.99e-05 s⁻¹
- kon (recombinant human α11β1 [4]): 17500 M⁻¹ s⁻¹
- EC50 (read off the curve) (recombinant mouse α11β1 [9]): ~30 ng/mL
- Kd (recombinant human α11β1 [5]): 2.85 nM

B3: 8-P20 (antibody, V domains shown)
VH: KVMLVESGGALVKPGGSLKLSCVASGFTFSNYAMSWVRQTPEKRLEWVATISSGGYYTYYPDSVKGRFTISRDNARNTLFLQMSSLRSEDTAMFYCAREDDYGRYSYTMDYWGQGTSVTVSS
VL: DVVMTQTPLSLPVSLGDQVSISCRCSQSLVHSNGNTYLHWYLQKPGQSPQLLIYKISNRFSGVPDRFSGSGSGTDFTLKISRVEAEDLGVYFCSQSTHVPYTFGGGTELEIK
notes: mouse hybridoma IgG
- binding result [6]: no binding (tested: 1 µg/mL)
- EC50 (read off the curve) (recombinant human α11β1 [7]): ~0.03 ng/mL
- EC50 [8]: 0.12 µg/mL and 0.8 nM
- binding result (recombinant mouse α11β1 [9]): no binding (tested: 1 µg/mL)

B4: 8-J17 (antibody, V domains shown)
VH: QVQLQQSGAELAKPGASVKMSCKASGYTFTNYWMHWVKQRPGQGLEWIGYINPNNGYTEYNQRFKDKATLTADRSSTTAYMQLSSLTSEDSAVYYCARSDIITTDYWGQGTTLTVSS
VL: DVVMTQTPLSLPVSLGDQASISCRSSQSLVYSNGNTYLHWYLQKPGQSPKLLIYKVSNRFSGVPDRFSGSGSGTDFTLKISRVEAEDLGVYFCSQSTHVPWTFGGGTKLEIK
notes: mouse hybridoma IgG
- binding result [6]: no binding (tested: 1 µg/mL)
- EC50 (read off the curve) (recombinant human α11β1 [7]): ~0.1 ng/mL
- EC50 [8]: 0.33 µg/mL and 2.2 nM
- binding result (recombinant mouse α11β1 [9]): no binding (tested: 1 µg/mL)

B5: 8-G15 (antibody, V domains shown)
VH: EVQLQQSGPELVKPGASVRISCKASGYTFTDYYIHWVKQKPGQGLECIGEIYPGTDNTYYSKKFRGKATLTADKSSDTAYMQLSSLTSEDSAVYFCARGDYYRGYFDVWGAGTTVTVSS
VL: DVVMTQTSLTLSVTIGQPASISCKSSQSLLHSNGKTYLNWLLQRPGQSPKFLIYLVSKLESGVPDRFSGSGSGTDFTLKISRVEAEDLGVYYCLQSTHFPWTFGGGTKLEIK
notes: mouse hybridoma IgG
- binding result [6]: no binding (tested: 1 µg/mL)
- EC50 (read off the curve) (recombinant human α11β1 [7]): ~0.03 ng/mL
- EC50 [8]: 0.22 µg/mL and 1.5 nM
- binding result (recombinant mouse α11β1 [9]): no binding (tested: 1 µg/mL)

B6: 24E4G6 (antibody, V domains shown)
VH: EVQLVESGGSLVQPGGSLKLSCVASGYTFSNYWMDWVRQSPGKSLEWIGEINTDGRRTNYAPSIKDRFTISRDNAKSTLYLQMSNVKSDDTAIYYCTILRVYPHYFDYWGQGVMVTVSS
VL: DVVMTQTPPSLSVAIGQSVSISCKSSQSLVYSDGETYLHWFLQSPGRSPKRLIYHVSNLGSGVPDRFSGTGSLTDFTLRISRVEAEDLGVYYCAQTTHFPPTFGAGTKLELK
notes: rat hybridoma mAb
- binding result (recombinant human α11β1 [10]): binds
- binding result [11]: binds
- binding result [12]: no binding (tested: 2 µg/ml)

B7: 79E3E3 (antibody, V domains shown)
VH: QIQLVQSGPEVKKPGESVKISCKASGYTFTDYAMNWVKQAPGNGLKWMGWINTQTGKPTYADDFKQRFVFSLETSARTTYLQINNLNIEDTATYFCTRLGTGNTKGFAYWGQGTLVTVSS
VL: DILINQSPASLTVSAGERVTMSCKSSQSLLYSENNQDYLAWYQQKPGQFPKLLIYGASNRHTGVPDRFTGSGSGTDFTLTISSVQAEDLADYYCEQTYRYPFTFGSGTKLEIK
notes: rat hybridoma mAb
- EC50 [1]: 7.3 nM
- IC50 of blocking cell adhesion to type I collagen [13]: 9.4 nM
- EC50 (Mouse CHO-α11): 3.5 nM
- binding result (recombinant mouse α11β1 [14]): binds
- EC50 [2]: 0.5 µg/mL and 3.35 nM
- koff (recombinant human α11β1 [4]): 0.000108 s⁻¹
- kon (recombinant human α11β1 [4]): 1.07e+07 M⁻¹ s⁻¹
- Kd (recombinant human α11β1 [5]): 0.01 nM

B8: 40G10H11 (antibody, V domains shown)
VH: AVQLVESGGGLVQPGRSLKLSCAASRITFTDYYMAWVRQAPTKGLEWVATISSDGGDTFYRDSVKGRFTISRDNAKSTLYLQMVSLRSEDTATYYCSTDRGAQFGYWGQGTLVTVSS
VL: DIQMTQSPSFLSASVGDRVSINCKASQNVHENLNWYQQKLGEAPKRLIYNTNNLQTGIPSRFSGSGSGADYTLTISSLQPEDFATYFCLQHNAFPYTFGPGTKLELK
notes: rat hybridoma mAb
- binding result [12]: no binding (tested: 2 µg/ml)
